Measured values: publication PMC5030187 (Biochemistry, 2016)

Target: the molecule itself
Assay: crystal structure

B1: Ag(I)-bound periplasmic sensor domain of E. coli histidine kinase CusS, CusS(39-187) (domain or fragment, UniProt P77485 39-187, looked up)
chain: VKVHFAEQDINDLKEISATLERVLNHPDETQARRLMTLEDIVSGYSNVLISLADSQGKTVYHSPGAPDIREFTRDAIPDKDAQGGEVYLLSGPTMMMPGHGHGHMEHSNWRMINLPVGPLVDGKPIYTLYIALSIDFHLHYINDLMNKL
stoichiometry N: 2
